Test results from US20240036044A1 (GEMINA LABORATORIES, published 2024).

Assays:
[1] = biological target: Monoclonal antibody against the SARS-CoV-2 Spike protein (A02038, Genscript)
[2] = biological target: Monoclonal antibody against the SARS-CoV-2 Nucleocapsid protein (A02039, Genscript)
[3] = biological target: T1, recombinant SARS-CoV-2 Nucleocapsid protein antigen (Z03488, Genscript) (SARS-CoV-2, UniProt P0DTC9 1-419); test: dot blot dipstick, gold nanoparticles with EMT-003 alone
T1 construct: also called SARS-CoV-2 Nucleocapsid antigen; NC

[4] = biological target: T2, recombinant SARS-CoV-2 Spike protein antigen (Z03501, Genscript) (SARS-CoV-2, UniProt P0DTC2 16-685); test: dot blot dipstick assay, gold nanoparticle conjugate without antibody
T2 construct: also called SARS-CoV-2 Spike antigen; S antigen

B1: gold-binding fusion protein EMT003 (protein G' - linker - gold-binding peptide EMT015) (other)
chain: MTYKLILNGKTLKGETTTEAVDAATAEKVFKQYANDNGVDGEWTYDDATKTFTVTEKPEVIDASELTPAVTTYKLVINGKTLKGETTTEAVDAATAEKVFKQYANDNGVDGEWTYDDATKTFTVTEKPEVIDASELTPAVTTYKLVINGKTLKGETTTKAVDAETAEKAFKQYANDNGVDGVWTYDDATKTFTVTEGGGGSGGGGSGGGGSASGGGMHGKTQATSGTIQSMHGKTQATSGTIQSMHGKTQATSGTIQSMHGKTQATSGTIQSMHGKTQATSGTIQSMHGKTQATSGTIQSMHGKTQATSGTIQS
notes: also called EMT-03; Gold fusion protein
B1 gave a Kd [1] of 0.192 nM, a koff [1] of 0.000103 s⁻¹ and a kon [1] of 537000 M⁻¹ s⁻¹. For the same binder, the Kd [2] was 0.258 nM, the koff [2] was 0.000149 s⁻¹ and the kon [2] was 577000 M⁻¹ s⁻¹. B1: no binding [3]; no binding (tested: 0.5 µg antigen spotted) [4].
